The assay has as its target human CD40 on cells (human, UniProt P25942 21-277). The experiment in a line: cell-based or functional assay.

B1: soluble human CD40L (ligand, UniProt P29965 113-261, looked up)
chain: MQKGDQNPQIAAHVISEASSKTTSVLQWAEKGYYTMSNNLVTLENGKQLTVKRQGLYYIYAQVTFCSNREASSQAPFIASLCLKSPGRFERILLRAANTHSSAKPCGQQSIHLGGVFELQPGASVFVNVTDPSQVSHGTGFTSFGLLKL
modifications: fluorescent label in the ligand binding assay of Table 7
As to B1, the “CD40L EC50, human B cell proliferation, no antibody” value came to 1.08 ng/mL; the “CD40L EC50, human B cell proliferation, with 1 ug/ml 4G7” value is 1.04 ng/mL; the “CD40L EC50, human B cell proliferation, with 1 ug/ml 29H10” value came out at 0.715 ng/mL; the “CD40L EC50, human B cell proliferation, with 1 ug/ml 30A12” value stood at 0.81 ng/mL. Also, the “CD40L EC50, human B cell proliferation, with 1 ug/ml 33H6” value was found to be 1.14 ng/mL; the “CD40L EC50, human B cell proliferation, with 1 ug/ml 35F11” value is 6.66 ng/mL; the “CD40L EC50, human B cell proliferation, with 1 ug/ml 36F3” value came out at 13 ng/mL; the “CD40L EC50, human B cell proliferation, with 1 ug/ml 37A6” value is 1.39 ng/mL. For the same molecule, the “CD40L EC50, human B cell proliferation, with 1 ug/ml 39C2” value was 0.985 ng/mL.

For the origin of these results see patent US20260109776A1 (Amgen, published 2026).
